ROS production by IC-activated human neutrophils data for 1 substance are collected here from patent publication US20160235814A1.

This assay concerns the target human IgG (coated on 96-well plates to form immune complexes, IC) (human). Description: cell-based or functional assay.

Consider “Human sCD32 (SM101), recombinant soluble human FcγRIIB (from UniProt P31994 46-221) (receptor)”, for which the ROS production by IC-activated human neutrophils (scale: % reduction of ROS production at 0.01 mg/ml sCD32) is 30, the ROS production by IC-activated human neutrophils (scale: % reduction of ROS production at 0.1 mg/ml sCD32) amounted to 65 and the ROS production by IC-activated human neutrophils (scale: % reduction of ROS production at 0.5 mg/ml sCD32) worked out at 75.
